Biological target: the molecule itself
Test: crystal structure

B1: Marasmius oreades agglutinin (natural protein, UniProt Q8X123 1-293, looked up)
chain: MSLRRGIYHIENAGVPSAIDLKDGSSSDGTPIVGWQFTPDTINWHQLWLAEPIPNVADTFTLCNLFSGTYMDLYNGSSEAGTAVNGWQGTAFTTNPHQLWTIKKSSDGTSYKIQNYGSKTFVDLVNGDSSDGAKIAGWTGTWDEGNPHQKWYFNRMSVSSAEAQAAIARNPHIHGTYRGYILDGEYLVLPNATFTQIWKDSGLPGSKWREQIYDCDDFAIAMKAAVGKWGADSWKANGFAIFCGVMLGVNKAGDAAHAYNFTLTKDHADIVFFEPQNGGYLNDIGYDSYMAFY
modifications: side chain of Cys215 oxidized in about 50% of the molecules in the crystal
stoichiometry N: 2
